From publication PMC4189797, “Mycoplasma synoviae enolase is a plasminogen/fibronectin binding protein” (BMC Veterinary Research, 2014)

Test system: O=C(O)[C@@H](CO)OP(=O)(O)O
Assay: purified protein
Details: 100 mM HEPES, 7.7 mM KCl, 10 mM MgCl2, pH 7.5, 30°C, 2-PGA 0.5, 1.5 and 2.0 mM

rMsEno (recombinant M. synoviae enolase) (Mycoplasmopsis synoviae 53)
Km: 1100 µM
